# B1: Pistol ribozyme (parent)
# chain: GGGUCGUUGUUCCAUAAUCGCGUGGAUAUGGCACGCAAGUUUCUACCGGGCACCGUAAAUGUCCGACUGGAGCCGUUCGGGCGGCUAUAAACAGACCUCAGGCCCGAAGCGUGGCGGCACCUGCCGCCGGUGGUAAAAAAGAUCGGAAGAGCACACGUCU
# Variants of: B1
# Assay: aptazyme ON/OFF ratio, guanine; higher = stronger switching; co-transcriptional cleavage with and without guanine
row,Variant,aptazyme ON/OFF ratio
1,G9A U10G C12U C13A,1.37
2,G9A U10G C12U C13U,1.05
3,G9A U10G C12U C13G,1.35
4,U8G U10G U11A C12G C13U,1.34
5,U8G U10G U11A C12G C13A,1.13
6,U8G U10G U11A C12G C13G,1.17
7,U8G U10C U11G C12G C13A,1.17
8,U8G U10C U11G C12G C13G,1.18
9,U8G U10C U11G C12G C13U,1.2
10,G9A U10C U11G C12A C13A,1.22
11,G9A U10C U11G C12A C13U,1.21
12,G9A U10C U11G C12A C13G,1.3
13,G9A U10C U11A C12A C13A,1.28
14,G9A U10C U11A C12A C13U,1.63
15,G9A U10C U11A C12A C13G,1.42
16,G9A U10G C13A,1.3
17,G9A U10G C13G,1.15
18,G9A U10G C13U,1.52
19,G9A U10A,3.05
20,G9A U10C,3.12
21,G9A U10G,3.45
22,U8G U10G U11A C13G,1.18
23,U8G U10G U11A C13U,1.33
24,U8G U10G U11A C13A,1.16

row,Variant,aptazyme ON/OFF ratio
1,G9A U10G U11C,1.1
2,G9A U10G U11A,1.06
3,U8G U10C U11G C12G,1.23
4,U8G U10C U11G C12A,1.35
5,U8G U10C U11G C12U,1.33
6,G9A U10G U11C C12G C13A,1.11
7,G9A U10G U11C C12G C13U,1.24
8,G9A U10G U11C C12G C13G,1.27
9,U8G U10G U11G C13A,1.21
10,U8G U10G U11G C13G,1.25
11,U8G U10G U11G C13U,1.19
12,U8G U11C C12U,1.26
13,U8G U11C C12A,1.13
14,U8G U11C C12G,1.3
15,U8G U10G C12G,1.3
16,U8G U10G C12U,1.15
17,U8G U10G C12A,1.39
18,G9A U10A U11C C12G C13U,1.41
19,G9A U10A U11C C12G C13A,1.31
20,G9A U10A U11C C12G C13G,1.27
21,U8G U10G U11G C12A,1.09
22,U8G U10G U11G C12U,1.44
23,U8G U10G U11G C12G,1.07
24,G9A U10G U11A C12A C13A,1.08

row,Variant,aptazyme ON/OFF ratio
1,G9A U10G U11A C12A C13U,1.1
2,G9A U10G U11A C12A C13G,1.09
3,U8G U10G C12U C13G,1.18
4,U8G U10G C12U C13U,1.2
5,U8G U10G C12U C13A,1.3
6,G9A U10C U11C C12U C13G,1.04
7,G9A U10C U11C C12U C13A,1.03
8,G9A U10C U11C C12U C13U,1.06
9,G9A U10C U11G C12G C13A,1.17
10,G9A U10C U11G C12G C13U,1.1
11,G9A U10C U11G C12G C13G,1.12
12,U8G U10G U11C C13A,1.04
13,U8G U10G U11C C13G,1.02
14,U8G U10G U11C C13U,1.04
15,G9A C12U,1.78
16,G9A C12G,1.71
17,G9A C12A,1.92
18,G9A U10C C12G,1.32
19,G9A U10C C12U,1.5
20,G9A U10C C12A,1.38
21,U8G U10C U11G,1.75
22,U8G U10C U11C,1.19
23,U8G U11A C12A C13G,1.14
24,U8G U11A C12A C13U,1.28

row,Variant,aptazyme ON/OFF ratio
1,U8G U11A C12A C13A,1.18
2,G9A U10G U11A C13U,1.05
3,G9A U10G U11A C13G,1.04
4,G9A U10G U11A C13A,1.01
5,U8G U11G C12U C13A,1.22
6,U8G U11G C12U C13U,1.21
7,U8G U11G C12U C13G,1.24
8,G9A U10G U11A C12U,1.04
9,G9A U10G U11A C12G,1.33
10,G9A U10G U11A C12A,1.17
11,U8G U11C C13G,1.17
12,U8G U11C C13A,1.19
13,U8G U11C C13U,1.37
14,U8G U11G C12A,1.44
15,U8G U11G C12G,1.18
16,U8G U11G C12U,1.33
17,G9A U10C C12G C13A,1.23
18,G9A U10C C12G C13G,1.23
19,G9A U10C C12G C13U,1.31
20,G9A U10A U11G C12A C13U,1.26
21,G9A U10A U11G C12A C13A,1.07
22,G9A U10A U11G C12A C13G,1.28
23,U8G U11A C13A,1.24
24,U8G U11A C13U,1.33

row,Variant,aptazyme ON/OFF ratio
1,U8G U11A C13G,1.11
2,G9A U10A U11G C13A,1.34
3,G9A U10A U11G C13G,1.11
4,G9A U10A U11G C13U,1.51
5,G9A U10C U11G C12U,1.52
6,G9A U10C U11G C12G,1.18
7,G9A U10C U11G C12A,1.03
8,G9A U10C C12U C13G,1.27
9,G9A U10C C12U C13A,1.38
10,G9A U10C C12U C13U,1.34
11,U8G U10G U11C C12U C13G,1.14
12,U8G U10G U11C C12U C13A,1.06
13,U8G U10G U11C C12U C13U,1.04
14,G9A U10A U11A C13A,1.11
15,G9A U10A U11A C13G,1.05
16,G9A U10A U11A C13U,1.46
17,G9A U10A U11A C12U,1.68
18,G9A U10A U11A C12A,1.66
19,G9A U10A U11A C12G,1.83
20,G9A U10A U11C,1.08
21,G9A U10A U11A,2.7
22,G9A U10A U11G,2.38
23,G9A U10A C12G C13A,1.47
24,G9A U10A C12G C13U,1.57

row,Variant,aptazyme ON/OFF ratio
1,G9A U10A C12G C13G,1.33
2,U8G U10G C12G C13U,1.35
3,U8G U10G C12G C13A,1.31
4,U8G U10G C12G C13G,1.14
5,U8G U11G C12A C13A,1.13
6,U8G U11G C12A C13U,1.21
7,U8G U11G C12A C13G,1.17
8,G9A U10A U11C C12G,1.32
9,G9A U10A U11C C12U,1.13
10,G9A U10A U11C C12A,1.65
11,G9A C13A,1.45
12,G9A C13U,1.52
13,G9A C13G,1.07
14,U8G U10G U11G C12A C13U,1.18
15,U8G U10G U11G C12A C13A,1.08
16,U8G U10G U11G C12A C13G,1.05
17,U8G U10G C12A C13U,1.17
18,U8G U10G C12A C13A,1.26
19,U8G U10G C12A C13G,1.19
20,U8G U10C U11C C12U,1.17
21,U8G U10C U11C C12A,1.09
22,U8G U10C U11C C12G,1.21
23,G9A U10G C12G C13G,1.21
24,G9A U10G C12G C13A,1.19

row,Variant,aptazyme ON/OFF ratio
1,G9A U10G C12G C13U,1.29
2,G9A U10A C12U C13U,1.4
3,G9A U10A C12U C13G,1.24
4,G9A U10A C12U C13A,1.39
5,G9A U10A C12A C13G,1.06
6,G9A U10A C12A C13U,1.36
7,G9A U10A C12A C13A,1.61
8,U8G U11C C12G C13U,1.2
9,U8G U11C C12G C13G,1.3
10,U8G U11C C12G C13A,1.25
11,G9A U10C U11A C13U,1.3
12,G9A U10C U11A C13A,1.41
13,G9A U10C U11A C13G,1.14
14,G9A,3.41
15,U8G U10G U11A,1.26
16,U8G U10G U11G,1.45
17,U8G U10G U11C,1.05
18,G9A U10C U11A C12U C13A,1.35
19,G9A U10C U11A C12U C13U,1.22
20,G9A U10C U11A C12U C13G,1.29
21,U8G U10G U11A C12G,1.28
22,U8G U10G U11A C12A,1.18
23,U8G U10G U11A C12U,1.38

# From the RNAGym collection of RNA variant scans (doi:10.1021/acssynbio.7b00057)
